Experimental data from patent US20050106177A1.

Columns and labels:
Assay in all cases: cell-based or functional assay
[1] = target: YU2 envelope glycoproteins on recombinant HIV-1 (HIV-1, primary isolate YU2) (UniProt P35961)
[2] = target: ADA envelope glycoproteins on recombinant HIV-1 (HIV-1, primary isolate ADA)
[3] = target: HXBc2 envelope glycoproteins on recombinant HIV-1 (HIV-1, TCLA strain HXBc2) (UniProt P04578)

Sequence of UniProt P35961 (P35961 32-843): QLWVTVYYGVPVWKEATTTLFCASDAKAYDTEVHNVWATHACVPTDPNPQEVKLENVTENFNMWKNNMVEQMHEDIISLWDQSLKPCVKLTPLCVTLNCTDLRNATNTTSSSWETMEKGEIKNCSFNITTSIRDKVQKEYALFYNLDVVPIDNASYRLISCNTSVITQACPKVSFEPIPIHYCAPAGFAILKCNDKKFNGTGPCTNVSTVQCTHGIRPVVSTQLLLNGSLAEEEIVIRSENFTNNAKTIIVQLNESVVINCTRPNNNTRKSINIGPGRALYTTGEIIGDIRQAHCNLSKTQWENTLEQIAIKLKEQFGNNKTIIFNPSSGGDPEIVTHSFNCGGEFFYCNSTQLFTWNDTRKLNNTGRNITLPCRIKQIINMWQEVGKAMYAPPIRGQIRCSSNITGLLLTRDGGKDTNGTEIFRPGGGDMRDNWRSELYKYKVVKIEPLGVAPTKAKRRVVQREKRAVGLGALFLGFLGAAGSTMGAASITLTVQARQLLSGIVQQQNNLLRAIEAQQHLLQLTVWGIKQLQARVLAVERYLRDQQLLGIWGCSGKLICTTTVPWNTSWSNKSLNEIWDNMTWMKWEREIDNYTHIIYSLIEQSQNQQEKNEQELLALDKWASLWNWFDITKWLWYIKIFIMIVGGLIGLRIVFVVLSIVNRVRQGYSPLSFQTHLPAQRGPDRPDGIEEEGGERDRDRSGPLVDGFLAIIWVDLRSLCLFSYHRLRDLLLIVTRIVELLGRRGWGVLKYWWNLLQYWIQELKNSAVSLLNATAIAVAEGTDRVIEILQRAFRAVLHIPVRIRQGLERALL

IgG1b12 antibody
50% neutralization of recombinant virus, single-round luciferase entry assay (:g/ml (so in the source); symbol garbled)) [1]: 5 | 90% neutralization of recombinant virus, single-round luciferase entry assay (:g/ml (so in the source); symbol garbled)) [1]: > 20 | 50% neutralization of recombinant virus, single-round luciferase entry assay (:g/ml (so in the source); symbol garbled)) [2]: 2.5 | 90% neutralization of recombinant virus, single-round luciferase entry assay (:g/ml (so in the source); symbol garbled)) [2]: > 10 | 90% neutralization of recombinant virus, single-round luciferase entry assay (g/ml (so in the source); symbol garbled)) [3]: 1.25
